Biological target: T1, human complement 5a receptor (C5aR) (Homo sapiens, UniProt P21730)
T1 construct: 10x His (N); FLAG (N); StrepII (C); made in house; host or cells: Sf9 insect cells (recombinant baculovirus, pOET5 / flashBAC); membrane preparation
T1 sequence (P21730 1-350): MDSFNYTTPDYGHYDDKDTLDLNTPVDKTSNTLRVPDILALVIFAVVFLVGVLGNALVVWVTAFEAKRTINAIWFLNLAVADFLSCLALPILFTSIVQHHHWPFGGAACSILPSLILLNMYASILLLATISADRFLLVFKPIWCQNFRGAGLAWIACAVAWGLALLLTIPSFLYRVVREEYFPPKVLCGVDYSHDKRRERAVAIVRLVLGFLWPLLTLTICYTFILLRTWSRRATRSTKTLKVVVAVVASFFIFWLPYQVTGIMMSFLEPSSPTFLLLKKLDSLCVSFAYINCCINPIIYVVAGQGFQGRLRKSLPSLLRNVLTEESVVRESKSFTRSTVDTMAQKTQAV
Test: Saturation radioligand binding of [^3H]‐C5a^CF to C5aR in Sf9 membranes
Conditions: radioligand 31 pM‐8 nM; human C5aR coproduced with Gαi2, Sf9 membranes (10–50 μg total protein); 120 min, room temperature; 50 mM Hepes‐NaOH pH 7.4, 5 mM MgCl2, 1 mM CaCl2, 0.5% BSA, 75 mM NaCl; nonspecific: 50 μM H2N‐ChaW; filtration, scintillation counting; means ± SEM from three or two independent experiments in triplicate; read-out: KD (dissociation constant)
Description: The complement 5a receptor was coproduced with Gαi2 in Sf9 insect cells. The cDNA encoding the human complement 5a receptor flanked by an N‐terminal 10x His and FLAG tag and a C‐terminal StrepII tag was cloned into the pOET5 transfer vector (Oxford Expression Technologies, Oxford, UK). pOET5 contains two expression cassettes, the receptor is expressed under the control of a polyhedron promoter; Gαi2 expression is regulated by a p10 promoter. Recombinant baculoviruses were generated with the flashBAC protein expression system (Oxford Expression Technologies) according to manufacturer's instructions. […] Total membrane protein content was determined by the bicinchoninic acid (BCA) method using bovine serum albumin as the standard.
For the determination of binding parameters, membranes containing the respective receptors (10–50 μg total membrane protein) were incubated with cell‐free synthesized tritium‐labelled ligands in varying concentrations. Binding was terminated by rapid filtration over glass fibre filters pretreated with 0.3% polyethyleneimine using a Brandel harvester (Brandel, Alpha Biotech Ltd, Killearn, UK) and analysed by liquid scintillation counting. […]
Data are represented as means ± SEM from three or two independent experiments performed in triplicate and analysed in […] […]

B1: [^3H]‐C5a^CF: cell‐free‐synthesized tritium‐labelled complement 5a with N‐terminal hexa‐histidine tag; contains three proline residues (protein, UniProt P01031 678-751, looked up)
C5a anaphylatoxin: TLQKKIEEIAAKYKHSVVKKCCYDGACVNNDETCEQRAARISLGPRCIKAFTECCVVASQLRANISHKDMQLGR
modifications: C5a anaphylatoxin tritium label
Kd: 1.18 ± 0.27 nM

From paper PMC4794788, “Cell‐free synthesis of isotopically labelled peptide ligands for the functional characterization of G protein‐coupled receptors” (FEBS Open Bio, 2015)
